According to the RNAGym collection of RNA variant scans (doi:10.1073/pnas.2313332121):
Variants at the floor of the assay were thinned out.

B1: TPR 5TU (parent)
chain: GGAUCUUCUCGAUCUAACAAAAAAGACAAAUCUGCCACAAAGCUUGAGAGCAUCUUCGGAUGCAGAGGCGGCAGCCUUCGGUGGCGCGAUAGCGCCAACGUUCUCAACUAUGACACGCAAAACGCGUGCUCCGUUGAAUGGAGUUUAUCAUG

Variants of: B1
Experiment: polymerase ribozyme fitness, log enrichment relative to wild type (log ratio); higher = more active; in vitro selection for triplet polymerase activity
Summary of the method: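 Mutant libraries of both subunits of a heterodimeric triplet polymerase ribozyme were PCR-built, transcribed, and selected once in triplicate, with frozen incubation at −7 °C and capture of gel-excised extended constructs on streptavidin beads before RT-PCR. Illumina sequencing of input and output libraries was filtered to genotypes with ≥10 input reads and ≥1 read per output. Fitness is the logarithm of genotype enrichment over wild-type enrichment, using inverse-variance-weighted replicate averages. The logarithm is base 2.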

Row | Variant | polymerase ribozyme fitness (log ratio)
1 | C72G C96U C116U | ≤ -4.2
2 | C69G C93A | ≤ -4.2
3 | C69G C93G | -3.97
4 | C72G | -3.79
5 | C72U | -0.00972
6 | C72A | -3.87
7 | G70C C75A U109G A137C | ≤ -4.2
8 | C69U G84A A106C | -2.41
9 | C69G G86C A121C | ≤ -4.2
10 | C72U A91U G92A U127G | ≤ -4.2
11 | C72A U77A G88C C93G U111G A137U U139G | ≤ -4.2
12 | G70A C93U G141C | ≤ -4.2
13 | G70C C87G C96G A107G U146G | ≤ -4.2
14 | G70C C96U G100A C118G A120C | ≤ -4.2
15 | G70A C87U A106G | -2.89
16 | G70U A122C U144G | -2.06
17 | C75A C87U | -3.81
18 | A73C A113C | ≤ -4.2
19 | G74A C85G | -3.83
20 | G74A C85U | -3.54
21 | C69U C75U G92A U104G G133U C149U | ≤ -4.2

Row | Variant | polymerase ribozyme fitness (log ratio)
22 | C75A C79U G94C | ≤ -4.2
23 | A73C A107G | ≤ -4.2
24 | C72U G126U | -0.101
25 | C69U A119U | -1.57
26 | A73C G94A C95U U102C G126C G141U | ≤ -4.2
27 | C72U C93U | -0.741
28 | C72U G152A | -2.42
29 | A73G G86A | -2.14
30 | G71U A89U | -2.83
31 | C72A A91U U145A | ≤ -4.2
32 | G71U A142C | ≤ -4.2
33 | G70A G83U C105A A147C U148A | ≤ -4.2
34 | A73G C114U | -2.66
35 | G74A A89C | ≤ -4.2
36 | C69U G70C C93G C114A A150C | ≤ -4.2
37 | G71A C85U C96A A107G C118A | ≤ -4.2
38 | G71U G141U | -3.55
39 | A73U C105G | -3.79
40 | G70A G86U | -3.77
41 | C69U C95U | -1.47
42 | C69U C76G | ≤ -4.2

Row | Variant | polymerase ribozyme fitness (log ratio)
43 | G70A G141A | -3.46
44 | C72U G143C | -3.23
45 | C72G G86C | ≤ -4.2
46 | C72U G86C C105A C114U G140U | ≤ -4.2
47 | G70A C87U C96A C118G A147C | ≤ -4.2
48 | G70A A73U G133A U135G | ≤ -4.2
49 | G71U A147C | -3.65
50 | A73G C79U C96U A142U | ≤ -4.2
51 | A73G A107U | -4.1
52 | G70C G84U A107U | ≤ -4.2
53 | G70C G126U G152A | -3.99
54 | C72U C95U C96U U146A | -2.06
55 | A73C C87G G141C | ≤ -4.2
56 | A73C A142U | ≤ -4.2
57 | C69U G100A A137C | ≤ -4.2
58 | C75A C76U G86U A106U G126A U148C C149A | ≤ -4.2
59 | A73G U145G | -0.0134
60 | G71C C95U C132U G141A U146G | ≤ -4.2
61 | G71A G94A | -2.94
62 | G71A C95U C132U | -4.11
63 | C69U C85G G141A | -2.66

Row | Variant | polymerase ribozyme fitness (log ratio)
64 | C69G C85U G86A | -3.62
65 | C69U C96G C125U | -1.78
66 | A73U G83A | -1.97
67 | C75A C95G C96U | ≤ -4.2
68 | G71U C72A A91G C116A A138U | ≤ -4.2
69 | G70U G84U C87U G100A | ≤ -4.2
70 | G70C U134G | -4.17
71 | A73U C123U | -0.392
72 | C75A U135C | ≤ -4.2
73 | A73C A91G C116U | ≤ -4.2
74 | G71U C116U | -2.4
75 | G70U C85U G88C U145C | ≤ -4.2
76 | A73G U77C G88C | ≤ -4.2
77 | G74C C105U A107G | ≤ -4.2
78 | C72A C114A | ≤ -4.2
79 | G74C A89U U146C | ≤ -4.2
80 | A73U G84A G92A A122C U134A | ≤ -4.2
81 | A73U C85A | -2.44
82 | C69U C72U | -1.99
83 | G71U G74C A120C | ≤ -4.2
